Test results taken from article PMC9482650, “Quantitative fragmentomics allow affinity mapping of interactomes” (Nature Communications, 2022).

T1: FRMPD1, Q5SYB0
T1 sequence (Q5SYB0 52-145, limits assumed, looked up): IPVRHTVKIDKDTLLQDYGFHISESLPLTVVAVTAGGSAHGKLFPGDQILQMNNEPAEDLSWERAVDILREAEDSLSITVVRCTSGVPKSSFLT

T2: SNTG2, Q9NY99
T2 sequence (Q9NY99 68-166, limits assumed, looked up): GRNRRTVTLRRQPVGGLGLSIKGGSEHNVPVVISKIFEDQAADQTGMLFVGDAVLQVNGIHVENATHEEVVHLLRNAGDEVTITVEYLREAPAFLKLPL

T3: DVL3, Q92997
T3 sequence (Q92997 244-331, limits assumed, looked up): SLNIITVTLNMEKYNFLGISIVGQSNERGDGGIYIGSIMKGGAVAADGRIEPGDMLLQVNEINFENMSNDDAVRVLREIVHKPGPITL

T4: TJP3_3, O95049
T4 sequence (O95049 375-456, limits assumed, looked up): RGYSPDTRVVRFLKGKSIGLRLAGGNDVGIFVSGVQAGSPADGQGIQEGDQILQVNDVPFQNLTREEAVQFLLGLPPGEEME

T5: HTRA3, P83110
T5 sequence (P83110 354-453, limits assumed, looked up): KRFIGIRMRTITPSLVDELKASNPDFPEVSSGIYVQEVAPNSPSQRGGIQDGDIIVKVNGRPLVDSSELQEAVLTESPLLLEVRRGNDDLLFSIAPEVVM

T6: PDZD7_3, Q9H5P4
T6 sequence (Q9H5P4 857-944, limits assumed, looked up): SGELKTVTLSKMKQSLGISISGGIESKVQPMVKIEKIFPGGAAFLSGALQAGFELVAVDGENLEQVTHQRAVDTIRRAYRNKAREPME

T7: TX1BP3, O14907
T7 sequence (O14907 10-122, limits assumed, looked up): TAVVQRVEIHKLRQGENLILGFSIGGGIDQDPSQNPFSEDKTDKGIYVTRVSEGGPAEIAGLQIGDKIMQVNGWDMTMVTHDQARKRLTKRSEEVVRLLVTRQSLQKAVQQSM

T8: LIN7C, Q9NUP9
T8 sequence (Q9NUP9 88-185, limits assumed, looked up): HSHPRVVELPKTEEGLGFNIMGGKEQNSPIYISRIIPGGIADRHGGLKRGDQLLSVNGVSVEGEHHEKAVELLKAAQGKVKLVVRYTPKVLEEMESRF

T9: SNTA1, Q13424
T9 sequence (Q13424 82-180, limits assumed, looked up): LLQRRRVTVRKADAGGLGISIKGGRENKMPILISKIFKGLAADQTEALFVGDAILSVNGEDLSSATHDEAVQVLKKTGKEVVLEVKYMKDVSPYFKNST

T10: APBA3_1, O96018
T10 sequence (O96018 389-490, limits assumed, looked up): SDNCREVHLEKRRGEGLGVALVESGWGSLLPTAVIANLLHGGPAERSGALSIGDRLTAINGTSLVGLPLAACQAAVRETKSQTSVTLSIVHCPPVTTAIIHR

T11: RHPN1, Q8TCX5
T11 sequence (Q8TCX5 508-602, limits assumed, looked up): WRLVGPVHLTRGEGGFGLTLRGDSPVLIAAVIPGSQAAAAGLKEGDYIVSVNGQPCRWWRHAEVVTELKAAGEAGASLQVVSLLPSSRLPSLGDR

T12: PTPN13_1, Q12923
T12 sequence (Q12923 1088-1188, limits assumed, looked up): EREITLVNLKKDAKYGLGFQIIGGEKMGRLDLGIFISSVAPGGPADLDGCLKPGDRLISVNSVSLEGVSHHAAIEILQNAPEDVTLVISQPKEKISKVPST

B1: LSM14A, Q8ND56;Q8ND56-2 (peptide)
chain: EYRKDNKVAA

Biological target: MAST1, Q9Y2H9
Sequence (Q9Y2H9 962-1065): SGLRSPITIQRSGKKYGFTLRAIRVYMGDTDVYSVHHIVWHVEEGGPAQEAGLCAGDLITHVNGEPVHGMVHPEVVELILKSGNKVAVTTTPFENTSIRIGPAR
Assay: holdup assay
Set-up: key: below the threshold = too weak to quantify, mostly under pKd 3.1 to 4
Settings: plain residues with an end cap or a label only (N-terminal biotin on a linker: ado-ado)

Row | pKd | Binder
1 | below the threshold | B1

Biological target: T1, FRMPD1, Q5SYB0
Assay: holdup assay
Set-up: key: below the threshold = too weak to quantify, mostly under pKd 3.1 to 4
Settings: plain residues with an end cap or a label only (N-terminal biotin on a linker: ado-ado)

Row | pKd | Binder
2 | below the threshold | B1

Biological target: FRMPD2_2, Q68DX3
Sequence (Q68DX3 944-1038): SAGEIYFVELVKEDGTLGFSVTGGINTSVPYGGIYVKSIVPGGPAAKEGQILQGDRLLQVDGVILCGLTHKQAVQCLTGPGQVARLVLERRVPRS
Assay: holdup assay
Set-up: key: below the threshold = too weak to quantify, mostly under pKd 3.1 to 4
Settings: plain residues with an end cap or a label only (N-terminal biotin on a linker: ado-ado)

Row | pKd | Binder
3 | below the threshold | B1

Biological target: T2, SNTG2, Q9NY99
Assay: holdup assay
Set-up: key: below the threshold = too weak to quantify, mostly under pKd 3.1 to 4
Settings: plain residues with an end cap or a label only (N-terminal biotin on a linker: ado-ado)

Row | pKd | Binder
4 | below the threshold | B1

Biological target: T3, DVL3, Q92997
Assay: holdup assay
Set-up: key: below the threshold = too weak to quantify, mostly under pKd 3.1 to 4
Settings: plain residues with an end cap or a label only (N-terminal biotin on a linker: ado-ado)

Row | pKd | Binder
5 | below the threshold | B1

Biological target: T4, TJP3_3, O95049
Assay: holdup assay
Set-up: key: below the threshold = too weak to quantify, mostly under pKd 3.1 to 4
Settings: plain residues with an end cap or a label only (N-terminal biotin on a linker: ado-ado)

Row | pKd | Binder
6 | below the threshold | B1

Biological target: T5, HTRA3, P83110
Assay: holdup assay
Set-up: key: below the threshold = too weak to quantify, mostly under pKd 3.1 to 4
Settings: plain residues with an end cap or a label only (N-terminal biotin on a linker: ado-ado)

Row | pKd | Binder
7 | below the threshold | B1

Biological target: FRMPD3, Q5JV73
Sequence (Q5JV73 12-100): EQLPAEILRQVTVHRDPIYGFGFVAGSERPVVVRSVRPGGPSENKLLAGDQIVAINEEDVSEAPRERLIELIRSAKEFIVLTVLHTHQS
Assay: holdup assay
Set-up: key: below the threshold = too weak to quantify, mostly under pKd 3.1 to 4
Settings: plain residues with an end cap or a label only (N-terminal biotin on a linker: ado-ado)

Row | pKd | Binder
8 | below the threshold | B1

Biological target: T6, PDZD7_3, Q9H5P4
Assay: holdup assay
Set-up: key: below the threshold = too weak to quantify, mostly under pKd 3.1 to 4
Settings: plain residues with an end cap or a label only (N-terminal biotin on a linker: ado-ado)

Row | pKd | Binder
9 | below the threshold | B1

Biological target: T7, TX1BP3, O14907
Assay: holdup assay
Set-up: key: below the threshold = too weak to quantify, mostly under pKd 3.1 to 4
Settings: plain residues with an end cap or a label only (N-terminal biotin on a linker: ado-ado)

Row | pKd | Binder
10 | below the threshold | B1

Biological target: PDZRN4_1, Q6ZMN7
Sequence (Q6ZMN7 213-318): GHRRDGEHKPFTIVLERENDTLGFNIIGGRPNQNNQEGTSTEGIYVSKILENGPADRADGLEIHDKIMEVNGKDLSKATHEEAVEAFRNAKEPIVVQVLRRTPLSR
Assay: holdup assay
Set-up: key: below the threshold = too weak to quantify, mostly under pKd 3.1 to 4
Settings: plain residues with an end cap or a label only (N-terminal biotin on a linker: ado-ado)

Row | pKd | Binder
11 | below the threshold | B1

Biological target: T8, LIN7C, Q9NUP9
Assay: holdup assay
Set-up: key: below the threshold = too weak to quantify, mostly under pKd 3.1 to 4
Settings: plain residues with an end cap or a label only (N-terminal biotin on a linker: ado-ado)

Row | pKd | Binder
12 | below the threshold | B1

Biological target: ARHGEF12, Q9NZN5-2
Sequence (Q9NZN5 other isoform, or with tags, fused parts or gaps): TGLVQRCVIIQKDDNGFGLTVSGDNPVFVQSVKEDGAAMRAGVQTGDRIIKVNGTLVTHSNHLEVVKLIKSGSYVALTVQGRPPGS
Assay: holdup assay
Set-up: key: below the threshold = too weak to quantify, mostly under pKd 3.1 to 4
Settings: plain residues with an end cap or a label only (N-terminal biotin on a linker: ado-ado)

Row | pKd | Binder
13 | below the threshold | B1

Biological target: GRIP2_3, Q9C0E4
Sequence (Q9C0E4 238-339): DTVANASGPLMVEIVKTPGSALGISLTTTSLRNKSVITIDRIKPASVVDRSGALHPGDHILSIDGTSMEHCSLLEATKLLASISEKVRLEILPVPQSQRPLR
Assay: holdup assay
Set-up: key: below the threshold = too weak to quantify, mostly under pKd 3.1 to 4
Settings: plain residues with an end cap or a label only (N-terminal biotin on a linker: ado-ado)

Row | pKd | Binder
14 | below the threshold | B1

Biological target: GORASP1, Q9BQQ3
Sequence (Q9BQQ3 1-208): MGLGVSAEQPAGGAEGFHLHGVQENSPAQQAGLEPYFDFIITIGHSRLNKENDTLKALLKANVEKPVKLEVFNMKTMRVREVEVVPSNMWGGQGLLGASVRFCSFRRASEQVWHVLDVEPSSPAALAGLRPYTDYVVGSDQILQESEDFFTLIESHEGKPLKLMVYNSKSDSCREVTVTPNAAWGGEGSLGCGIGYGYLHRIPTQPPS
Assay: holdup assay
Set-up: key: below the threshold = too weak to quantify, mostly under pKd 3.1 to 4
Settings: plain residues with an end cap or a label only (N-terminal biotin on a linker: ado-ado)

Row | pKd | Binder
15 | below the threshold | B1

Biological target: T9, SNTA1, Q13424
Assay: holdup assay
Set-up: key: below the threshold = too weak to quantify, mostly under pKd 3.1 to 4
Settings: plain residues with an end cap or a label only (N-terminal biotin on a linker: ado-ado)

Row | pKd | Binder
16 | below the threshold | B1

Biological target: T10, APBA3_1, O96018
Assay: holdup assay
Set-up: key: below the threshold = too weak to quantify, mostly under pKd 3.1 to 4
Settings: plain residues with an end cap or a label only (N-terminal biotin on a linker: ado-ado)

Row | pKd | Binder
17 | below the threshold | B1

Biological target: Inadl_4, Q8NI35
Sequence (Q8NI35 547-651): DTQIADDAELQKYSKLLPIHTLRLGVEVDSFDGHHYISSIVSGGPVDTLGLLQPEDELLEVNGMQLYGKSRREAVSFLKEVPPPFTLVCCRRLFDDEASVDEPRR
Assay: holdup assay
Set-up: key: below the threshold = too weak to quantify, mostly under pKd 3.1 to 4
Settings: plain residues with an end cap or a label only (N-terminal biotin on a linker: ado-ado)

Row | pKd | Binder
18 | below the threshold | B1

Biological target: T11, RHPN1, Q8TCX5
Assay: holdup assay
Set-up: key: below the threshold = too weak to quantify, mostly under pKd 3.1 to 4
Settings: plain residues with an end cap or a label only (N-terminal biotin on a linker: ado-ado)

Row | pKd | Binder
19 | below the threshold | B1

Biological target: PTPN3, P26045
Sequence (P26045 505-587): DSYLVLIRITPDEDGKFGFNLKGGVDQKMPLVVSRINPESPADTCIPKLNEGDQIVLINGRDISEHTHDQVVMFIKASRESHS
Assay: holdup assay
Set-up: key: below the threshold = too weak to quantify, mostly under pKd 3.1 to 4
Settings: plain residues with an end cap or a label only (N-terminal biotin on a linker: ado-ado)

Row | pKd | Binder
20 | 3.95 | B1

Biological target: MAGI2_4, Q86UL8
Sequence (Q86UL8 772-865): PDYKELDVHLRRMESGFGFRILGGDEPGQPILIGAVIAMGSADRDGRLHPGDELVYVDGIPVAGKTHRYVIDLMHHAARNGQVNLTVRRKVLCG
Assay: holdup assay
Set-up: key: below the threshold = too weak to quantify, mostly under pKd 3.1 to 4
Settings: plain residues with an end cap or a label only (N-terminal biotin on a linker: ado-ado)

Row | pKd | Binder
21 | below the threshold | B1

Biological target: Inadl_5, Q8NI35
Sequence (Q8NI35 673-780): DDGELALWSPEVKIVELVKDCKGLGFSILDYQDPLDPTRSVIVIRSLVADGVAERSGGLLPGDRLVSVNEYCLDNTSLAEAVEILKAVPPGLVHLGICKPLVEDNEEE
Assay: holdup assay
Set-up: key: below the threshold = too weak to quantify, mostly under pKd 3.1 to 4
Settings: plain residues with an end cap or a label only (N-terminal biotin on a linker: ado-ado)

Row | pKd | Binder
22 | below the threshold | B1

Biological target: T12, PTPN13_1, Q12923
Assay: holdup assay
Set-up: key: below the threshold = too weak to quantify, mostly under pKd 3.1 to 4
Settings: plain residues with an end cap or a label only (N-terminal biotin on a linker: ado-ado)

Row | pKd | Binder
23 | below the threshold | B1
